The supplement of paper PMC12783771
± gives the standard deviation of the averaged measurements.

B1: library; numbered along this chain (parent)
chain: MNIQIGELAKRTACPVVTIRFYEQEGLLPPPGRSRGNFRLYGEEHVERLQFIRHCRSLDMPLSDVRTLLSYRKRPDQDCGEVNMLLDEHIRQVESRIGALLELKHHLVELREACSGARPAQSCGILQGLSDCVCDTRGTTAHPSD

Key:
[1] = variants of: B1; assay: sfGFP reporter fluorescence (15 h) (µM FITC); higher = higher leak; conditions: library round: Round 1; ligand: none
Method: (§1)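 Cell-free biosensing: 1 µL Echo-assembled CFE reactions with linear PbrR variant templates (5 nM) and pPbrR-sfGFP reporter, with 1 µM Pb, 30 µM Zn or no ligand; endpoint sfGFP fluorescence after 15 h at 30 °C calibrated as µM FITC. Round 1 ML-predicted PbrR mutants; 3 biological replicates.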

[2] = variants of: B1; assay: sfGFP reporter fluorescence (15 h) (µM FITC); higher = stronger transcriptional activation; conditions: library round: Round 1
Method: as §1

Variant | sfGFP reporter fluorescence [1] | sfGFP reporter fluorescence ([2]; ligand: 1 µM Pb) | sfGFP reporter fluorescence ([2]; ligand: 30 µM Zn)
N83S E112L | 0.0612 ± 0.0034 | 0.0759 ± 0.0016 | 0.152 ± 0.006
E25V R111M | 0.063 ± 0.0024 | 0.0654 ± 0.0053 | 0.152 ± 0.0061
M60L D135A | 0.0914 ± 0.0019 | 0.258 ± 0.02 | 1.4 ± 0.16
L58F M60L P61N | 0.091 ± 0.002 | 0.191 ± 0.051 | 0.61 ± 0.095
M60L P61N D64K K104V L107E G128I | 0.0622 ± 0.0024 | 0.0589 ± 0.0018 | 0.0596 ± 0.0016
R39F V46C | 0.065 ± 0.0013 | 0.0632 ± 0.0031 | 0.0655 ± 0.0018
P61D D64K D135A | 0.15 ± 0.0062 | 0.321 ± 0.036 | 1.12 ± 0.11
M60L D64K D131C | 0.344 ± 0.036 | 0.896 ± 0.29 | 2.2 ± 0.15
P61D D64K L107C G128M | 1.99 ± 0.49 | 2.06 ± 0.23 | 2.38 ± 0.037
N83I K104V | 0.0628 ± 0.0011 | 0.356 ± 0.026 | 0.0679 ± 0.0048
P61A L107C G128M | 1.26 ± 0.063 | 1.47 ± 0.35 | 2.25 ± 0.16
D64T Q127G | 0.0611 ± 0.004 | 0.0887 ± 0.0049 | 0.594 ± 0.062
P61N E94A | 0.0757 ± 0.0021 | 0.15 ± 0.0094 | 0.977 ± 0.065
P61N E94C | 0.0858 ± 0.0022 | 0.186 ± 0.015 | 0.781 ± 0.13
P61N E94V | 0.07452 ± 0.00056 | 0.145 ± 0.009 | 0.747 ± 0.049
P61N C134V | 0.095 ± 0.0057 | 0.189 ± 0.051 | 1.26 ± 0.21
P61N C134M | 0.102 ± 0.0054 | 0.233 ± 0.0043 | 1.53 ± 0.14
P61N D131A P143W | 0.0886 ± 0.0011 | 0.134 ± 0.023 | 0.59 ± 0.051
G32S C55M | 0.0668 ± 0.0018 | 0.0712 ± 0.0065 | 0.101 ± 0.0013
R20W R111L | 0.06866 ± 0.00056 | 0.0663 ± 0.0045 | 0.0727 ± 0.0011
D64I D135T | 0.164 ± 0.02 | 0.514 ± 0.04 | 1.63 ± 0.29
P61L L62I | 0.063 ± 0.00064 | 0.063 ± 0.0019 | 0.0771 ± 0.0011

Variant | sfGFP reporter fluorescence [1] | sfGFP reporter fluorescence ([2]; ligand: 1 µM Pb) | sfGFP reporter fluorescence ([2]; ligand: 30 µM Zn)
D64K D131C | 0.0864 ± 0.0047 | 0.282 ± 0.026 | 0.929 ± 0.032
D64K D131L | 0.176 ± 0.017 | 0.513 ± 0.098 | 1.89 ± 0.093
D64K D131A | 0.131 ± 0.0097 | 0.37 ± 0.032 | 1.76 ± 0.11
N83T C123L | 0.0594 ± 0.0013 | 0.0586 ± 0.0016 | 0.059 ± 0.0017
E81Q | 0.0605 ± 0.0017 | 0.0673 ± 0.0016 | 0.189 ± 0.022
L62I K104V | 0.072 ± 0.0011 | 0.109 ± 0.0031 | 0.417 ± 0.022
N83S P143W | 0.0614 ± 0.0019 | 0.102 ± 0.012 | 0.556 ± 0.027
P61T I97N K104V | 0.0652 ± 0.0013 | 0.0689 ± 0.0055 | 0.169 ± 0.017
P61N L62I | 0.0668 ± 0.0015 | 0.0856 ± 0.0013 | 0.379 ± 0.015
L58F P61N | 0.0663 ± 0.0015 | 0.0952 ± 0.0084 | 0.219 ± 0.02
P61D D64M R111L | 0.177 ± 0.015 | 0.323 ± 0.09 | 1.43 ± 0.099
M60L D64K K104T | 0.5087 ± 0.0029 | 1.14 ± 0.23 | 2.22 ± 0.29
N83F P143K | 0.0612 ± 0.00097 | 0.0718 ± 0.0033 | 0.0627 ± 0.00097
D64A C134M | 0.135 ± 0.0022 | 0.233 ± 0.0049 | 1.77 ± 0.21
N83T D131S D135R | 0.064 ± 0.0013 | 0.0955 ± 0.0087 | 0.21 ± 0.0094
N83T D131S D135A | 0.0613 ± 0.0024 | 0.0871 ± 0.0043 | 0.193 ± 0.0075
P61N L68F I90T | 0.0702 ± 0.0011 | 0.0958 ± 0.017 | 0.435 ± 0.044
N83T D131A P143I | 0.0661 ± 0.0015 | 0.088 ± 0.0036 | 0.158 ± 0.014
N83T D131A P143L | 0.0646 ± 0.0011 | 0.0895 ± 0.002 | 0.161 ± 0.012
N83T D131A | 0.0649 ± 0.0029 | 0.0917 ± 0.0025 | 0.169 ± 0.016
N83T D131C | 0.0627 ± 0.0013 | 0.0738 ± 0.0019 | 0.0784 ± 0.0036
N83T D131H | 0.0632 ± 0.0011 | 0.0836 ± 0.0011 | 0.14 ± 0.012
